What all share (assay): BLI
What all share (conditions): both partners purified

In one assay the target is T1, fHbp mutant 0014 (Neisseria meningitidis, fHbp v1.1 mutant, point mutant).
T1 chain: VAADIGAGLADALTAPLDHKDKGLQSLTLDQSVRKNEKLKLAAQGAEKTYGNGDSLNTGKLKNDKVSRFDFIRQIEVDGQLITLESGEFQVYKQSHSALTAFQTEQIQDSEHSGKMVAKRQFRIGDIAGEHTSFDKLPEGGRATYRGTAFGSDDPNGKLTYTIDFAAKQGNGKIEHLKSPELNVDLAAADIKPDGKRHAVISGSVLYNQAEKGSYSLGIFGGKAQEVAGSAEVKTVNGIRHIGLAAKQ

For another assay, the target named is T2, fHbp m001207 (Neisseria meningitidis fHbp v3.28-based …, point mutant).
T2 chain: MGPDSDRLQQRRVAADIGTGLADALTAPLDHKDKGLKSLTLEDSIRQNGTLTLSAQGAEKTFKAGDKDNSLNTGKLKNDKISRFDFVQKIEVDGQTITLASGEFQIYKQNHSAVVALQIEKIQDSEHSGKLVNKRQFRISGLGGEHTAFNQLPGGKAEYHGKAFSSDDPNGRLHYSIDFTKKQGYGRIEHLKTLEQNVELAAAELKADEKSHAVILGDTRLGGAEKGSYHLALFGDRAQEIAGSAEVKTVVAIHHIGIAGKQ

A further assay addresses T3, fHbp m001152 (Neisseria meningitidis fHbp v3.28-based …, point mutant).
T3 chain: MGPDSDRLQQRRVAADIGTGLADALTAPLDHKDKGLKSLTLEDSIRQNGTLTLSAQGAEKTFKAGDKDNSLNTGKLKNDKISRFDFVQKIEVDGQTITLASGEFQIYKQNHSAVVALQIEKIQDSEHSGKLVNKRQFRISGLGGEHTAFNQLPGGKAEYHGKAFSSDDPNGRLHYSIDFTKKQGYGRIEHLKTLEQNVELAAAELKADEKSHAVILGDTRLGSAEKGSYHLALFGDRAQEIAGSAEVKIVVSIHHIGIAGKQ

A further assay deals with T4, fHbp m001497 (Neisseria meningitidis, fHbp …, point mutant).
T4 chain: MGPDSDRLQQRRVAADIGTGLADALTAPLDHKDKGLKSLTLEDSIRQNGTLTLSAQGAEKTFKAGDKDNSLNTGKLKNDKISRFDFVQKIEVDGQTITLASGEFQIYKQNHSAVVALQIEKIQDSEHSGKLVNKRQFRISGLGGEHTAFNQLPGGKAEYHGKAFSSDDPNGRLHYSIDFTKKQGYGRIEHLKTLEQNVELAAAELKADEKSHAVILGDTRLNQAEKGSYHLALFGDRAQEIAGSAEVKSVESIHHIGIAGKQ

For a further assay, the target named is T5, fHbp m001690 (Neisseria meningitidis, engineered fHbp …, point mutant).
T5 chain: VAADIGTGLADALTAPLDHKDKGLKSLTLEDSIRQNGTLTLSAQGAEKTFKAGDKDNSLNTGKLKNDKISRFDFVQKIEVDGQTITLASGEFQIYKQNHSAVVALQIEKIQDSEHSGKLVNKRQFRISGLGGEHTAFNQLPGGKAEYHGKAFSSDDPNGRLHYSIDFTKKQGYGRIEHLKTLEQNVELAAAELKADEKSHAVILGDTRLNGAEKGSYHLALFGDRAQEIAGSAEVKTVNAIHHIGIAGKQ

The target of another assay is T6, fHbp m002333 (Neisseria meningitidis, engineered fHbp …, chimera).
T6 chain: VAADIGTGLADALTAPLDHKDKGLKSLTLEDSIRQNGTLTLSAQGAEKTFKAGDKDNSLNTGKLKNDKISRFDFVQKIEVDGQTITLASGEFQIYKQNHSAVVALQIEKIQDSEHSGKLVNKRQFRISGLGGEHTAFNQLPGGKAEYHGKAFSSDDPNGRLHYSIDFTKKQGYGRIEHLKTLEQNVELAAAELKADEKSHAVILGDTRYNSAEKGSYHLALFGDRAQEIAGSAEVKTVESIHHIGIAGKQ

A further assay deals with T7, fHbp m001660 (Neisseria meningitidis, fHbp …, point mutant).
T7 chain: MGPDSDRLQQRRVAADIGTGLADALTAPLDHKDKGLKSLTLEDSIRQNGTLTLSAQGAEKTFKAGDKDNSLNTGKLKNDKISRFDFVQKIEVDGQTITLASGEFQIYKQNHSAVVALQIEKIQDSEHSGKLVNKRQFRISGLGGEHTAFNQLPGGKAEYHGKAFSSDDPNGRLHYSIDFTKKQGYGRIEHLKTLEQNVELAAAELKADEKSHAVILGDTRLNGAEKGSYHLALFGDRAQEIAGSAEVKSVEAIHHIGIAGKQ

Another assay has as its target T8, fHbp m001607 (Neisseria meningitidis, fHbp …, point mutant).
T8 chain: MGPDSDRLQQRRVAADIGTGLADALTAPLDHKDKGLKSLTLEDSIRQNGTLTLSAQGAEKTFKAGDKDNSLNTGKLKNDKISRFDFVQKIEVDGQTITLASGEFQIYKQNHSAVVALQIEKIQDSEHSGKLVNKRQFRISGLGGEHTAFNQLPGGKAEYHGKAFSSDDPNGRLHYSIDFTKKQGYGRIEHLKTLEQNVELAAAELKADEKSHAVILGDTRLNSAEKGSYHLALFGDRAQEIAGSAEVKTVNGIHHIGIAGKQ

Another assay deals with T9, fHbp m001118 (Neisseria meningitidis fHbp v3.28-based …, point mutant).
T9 chain: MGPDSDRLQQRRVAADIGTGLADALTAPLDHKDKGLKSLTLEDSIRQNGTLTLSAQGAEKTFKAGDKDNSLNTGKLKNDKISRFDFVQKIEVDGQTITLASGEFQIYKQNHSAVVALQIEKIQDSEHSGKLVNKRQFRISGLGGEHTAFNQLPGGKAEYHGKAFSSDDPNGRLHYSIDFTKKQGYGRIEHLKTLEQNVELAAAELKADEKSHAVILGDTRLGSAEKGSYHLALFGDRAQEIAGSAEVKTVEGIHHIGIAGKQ

B1: mAb 4B3 (human) (antibody, V domains shown)
VH: QVQLVQSGGGLVKPGGSLRLSCAASGFPFSSYYMSWIRQAPGKGLEWVSDINNSGNVKEYADFVKGRLTISRDNVKNSMYLHMNSLRVEDTAVYYCARNRGRFDVWGQGTLVTVSA
VL: EIVMTQSPGTLSLSPGETATLSCRASQMISSPFLAWYQQRRGQAPRLLIYGASTRATDTPDRFRGSGSGTDFILTISRLEPEDFAVYYCQYYDDSPFTFGQGTKLEIK
notes: also called 4B3-2; source: Expi293, purified (MabSelect SuRe, SEC); copies: 2 + 2
In the assay with fHbp mutant 0014, B1 had a Kd of 1.57 nM, a dissociation rate constant (koff) of 0.00116 s⁻¹ and an on-rate constant (kon) of 736500 ± 3130 M⁻¹ s⁻¹.

B2: chimeric antibody h12C1 (antibody, V domains shown)
VH: QVQLQESGPELVKPGASVKISCKASGYSFSDYNMSWVKQSNGKSLEWIGIIDPKYGTINYNQKFKGKATLTVDQASSTAYMQLNSLTSEDSAVYYCVRDYYGSSYFDYWGQGTTLTVSS
VL: DIVLTQSPSSIYASLGERVTLTCKASQDIHNYLNWFQQKPGKSPKTLIYRANRLVDGVPSRFSGGGSGQDYSLTISSLEFEDIGIYYCLQYDEFPPTFGGGTRLEIK
notes: also called humanized 12C1; source: Expi293, purified (MabSelect SuRe, SEC); copies: 2 + 2
As for B2, the Kd is 80.8 nM in the assay with fHbp m001207; 45.9 nM with fHbp m001152; 3.06 nM with fHbp m001497; 0.525 nM in the assay with fHbp m001690; 166 nM with fHbp m002333; 139 nM in the assay with fHbp m001660. Besides, the dissociation constant (Kd) with fHbp m001607 amounted to 32.9 nM; with fHbp m001118, 42 nM. Moreover, the koff with fHbp m001207 amounted to 0.014 s⁻¹; with fHbp m001152, 0.00937 s⁻¹; with fHbp m001497 it was 0.000593 s⁻¹; in the assay with fHbp m001690, 0.000185 s⁻¹; with fHbp m002333 it was 0.01686 ± 0.000166 s⁻¹; with fHbp m001660, 0.0649 ± 0.00238 s⁻¹. For the same molecule, the dissociation rate constant (koff) was 0.012 s⁻¹ with fHbp m001607 and 0.0103 s⁻¹ with fHbp m001118. Moreover, the on-rate constant (kon) with fHbp m001207 was determined as 174000 ± 4810 M⁻¹ s⁻¹; with fHbp m001152 it was 204000 ± 3360 M⁻¹ s⁻¹; with fHbp m001497, 193000 ± 2790 M⁻¹ s⁻¹; with fHbp m001690, 351700 ± 1560 M⁻¹ s⁻¹; with fHbp m002333 it was 102000 ± 4590 M⁻¹ s⁻¹; with fHbp m001660 it was 466000 ± 71500 M⁻¹ s⁻¹. Also, the on-rate constant (kon) was found to be 366000 ± 13300 M⁻¹ s⁻¹ with fHbp m001607 and 245000 ± 3100 M⁻¹ s⁻¹ with fHbp m001118.

B3: mAb 1E6 (human) (antibody, V domains shown)
VH: EVQLVQSGAEVKKPGSSVKVSCKASGGTVIDYPITWVRQAPGQGLEWVGGFVPLFRTSNYGQKFQGRVTITADKSTSTASMELNSLTSEDTAIYYCARGDTAMGPFDYWGQGTLVTVSS
VL: SYVLTQPPSLSVAPGKTATLTCGGNNIAGKTVHWYQQRPGQAPVLVISYDSDRPSGIPERFSGSNSANTATLTISRVEAGDEADYYCQVWDRNSDHWVFGGGTKLTVL
notes: source: Expi293, purified (MabSelect SuRe, SEC); copies: 2 + 2
For B3, the equilibrium dissociation constant (Kd) with fHbp m001207 came to 0.336 nM; with fHbp m001152 it was 0.291 nM; with fHbp m001497, 0.563 nM; with fHbp m001690, 0.678 nM; with fHbp m002333 it was 0.0267 nM; with fHbp m001660, 0.706 nM. Moreover, the equilibrium dissociation constant (Kd) with fHbp m001607 amounted to 0.242 nM; with fHbp m001118 it was 0.235 nM; in the assay with fHbp mutant 0014, 2.11 nM. The koff in the assay with fHbp m001207 came to 0.000155 s⁻¹; with fHbp m001152, 0.000121 s⁻¹; with fHbp m001497 it was 0.000176 s⁻¹; with fHbp m001690 it was 0.000298 s⁻¹; in the assay with fHbp m002333, 6.18e-06 s⁻¹; in the assay with fHbp m001660, 0.000209 s⁻¹. Further, the koff is 0.000117 s⁻¹ with fHbp m001607, 8.5e-05 s⁻¹ in the assay with fHbp m001118 and 0.00204 s⁻¹ with fHbp mutant 0014. Moreover, the kon in the assay with fHbp m001207 worked out at 459700 ± 4080 M⁻¹ s⁻¹; in the assay with fHbp m001152, 415300 ± 2380 M⁻¹ s⁻¹; with fHbp m001497, 311700 ± 2460 M⁻¹ s⁻¹; with fHbp m001690 it was 438900 ± 1790 M⁻¹ s⁻¹; with fHbp m002333, 231300 ± 2110 M⁻¹ s⁻¹; in the assay with fHbp m001660, 296000 ± 3450 M⁻¹ s⁻¹. For the same molecule, the on-rate (kon) is 484000 ± 5230 M⁻¹ s⁻¹ with fHbp m001607, 361600 ± 2210 M⁻¹ s⁻¹ with fHbp m001118 and 964100 ± 5740 M⁻¹ s⁻¹ in the assay with fHbp mutant 0014.

By Kd is commonly meant the free concentration of one partner at which half of the binding sites on the other are occupied at equilibrium, for simple one-to-one binding. A lower Kd goes with a tighter complex. The term koff denotes the first-order rate constant of dissociation. Lower therefore signals a long-lived complex. Broadly, the kon is the rate constant with which the complex forms. A low value points to slow association.

For the origin of these results see paper PMC12319226 (Frontiers in Bioinformatics, 2025).
